Assay results taken from doi:10.1101/2024.07.02.601760.

Biological target: T1, Arabidopsis thaliana 14-3-3 kappa (Arabidopsis thaliana), P48348
T1 chain: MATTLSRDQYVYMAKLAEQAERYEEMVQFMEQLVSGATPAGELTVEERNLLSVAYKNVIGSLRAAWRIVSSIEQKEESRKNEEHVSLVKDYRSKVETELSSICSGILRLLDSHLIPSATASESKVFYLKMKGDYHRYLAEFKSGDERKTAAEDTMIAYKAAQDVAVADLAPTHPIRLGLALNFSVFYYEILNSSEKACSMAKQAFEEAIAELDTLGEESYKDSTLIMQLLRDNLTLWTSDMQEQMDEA
Experiment: SEC-MALS
Details: remark: other sources report otherwise

B1: Arabidopsis thaliana 14-3-3 kappa, P48348 1-248 (natural protein)
chain: MATTLSRDQYVYMAKLAEQAERYEEMVQFMEQLVSGATPAGELTVEERNLLSVAYKNVIGSLRAAWRIVSSIEQKEESRKNEEHVSLVKDYRSKVETELSSICSGILRLLDSHLIPSATASESKVFYLKMKGDYHRYLAEFKSGDERKTAAEDTMIAYKAAQDVAVADLAPTHPIRLGLALNFSVFYYEILNSSEKACSMAKQAFEEAIAELDTLGEESYKDSTLIMQLLRDNLTLWTSDMQEQMDEA
  stoichiometry N: 2
